{"source": "paper PMC6140609", "about": "(Oncoimmunology, 2018)", "molecules": {"B1": {"name": "CD40L-OX40L (ligand, human)", "chain": "GDQNPQIAAHVISEASSKTTSVLQWAEKGYYTMSNNLVTLENGKQLTVKRQGLYYIYAQVTFCSNREASSQAPFIASLCLKSPGRFERILLRAANTHSSAKPCGQQSIHLGGVFELQPGASVFVNVTDPSQVSHGTGFTSFGLLKLGGGGSGGGGSGGGGSQVSHRYPRIQSIKVQFTEYKKEKGFILTSQKEDEIMKVQNNSVIINCDGFYLISLKGYFSQEVNISLHYQKDEEPLFQLKKVRSVNSLMVASLTYKDKVYLNVTTDNTSLDDFHVNGGELILIHQNPGEFCVL"}, "B2": {"name": "OX40L-4-1BBL (ligand, human)", "chain": "QVSHRYPRIQSIKVQFTEYKKEKGFILTSQKEDEIMKVQNNSVIINCDGFYLISLKGYFSQEVNISLHYQKDEEPLFQLKKVRSVNSLMVASLTYKDKVYLNVTTDNTSLDDFHVNGGELILIHQNPGEFCVLGGGGSGGGGSGGGGSGGGGSREGPELSPDDPAGLLDLRQGMFAQLVAQNVLLIDGPLSWYSDPGLAGVSLTGGLSYKEDTKELVVAKAGVYYVFFQLELRRVVAGEGSGSVSLALHLQPLRSAAGAAALALTVDLPPASSEARNSAFGFQGRLLHLSAGQRLGVHLHTEARARHAWQLTQGATVLGLFRVTPEIPAGLPSPRSE"}, "B3": {"name": "OX40L-CD40L (ligand, human)", "chain": "QVSHRYPRIQSIKVQFTEYKKEKGFILTSQKEDEIMKVQNNSVIINCDGFYLISLKGYFSQEVNISLHYQKDEEPLFQLKKVRSVNSLMVASLTYKDKVYLNVTTDNTSLDDFHVNGGELILIHQNPGEFCVLGGGGSGGGGSGGGGSGDQNPQIAAHVISEASSKTTSVLQWAEKGYYTMSNNLVTLENGKQLTVKRQGLYYIYAQVTFCSNREASSQAPFIASLCLKSPGRFERILLRAANTHSSAKPCGQQSIHLGGVFELQPGASVFVNVTDPSQVSHGTGFTSFGLLKL"}, "B4": {"name": "CD27L-CD40L (ligand, human)", "chain": "SLGWDVAELQLNHTGPQQDPRLYWQGGPALGRSFLHGPELDKGQLRIHRDGIYMVHIQVTLAICSSTTASRHHPTTLAVGICSPASRSISLLRLSFHQGCTIASQRLTPLARGDTLCTNLTGTLLPSRNTDETFFGVQWVRPGGGGSGGGGSGGGGSGDQNPQIAAHVISEASSKTTSVLQWAEKGYYTMSNNLVTLENGKQLTVKRQGLYYIYAQVTFCSNREASSQAPFIASLCLKSPGRFERILLRAANTHSSAKPCGQQSIHLGGVFELQPGASVFVNVTDPSQVSHGTGFTSFGLLKL"}, "B5": {"name": "OX40L-CD27L (ligand, human)", "chain": "QVSHRYPRIQSIKVQFTEYKKEKGFILTSQKEDEIMKVQNNSVIINCDGFYLISLKGYFSQEVNISLHYQKDEEPLFQLKKVRSVNSLMVASLTYKDKVYLNVTTDNTSLDDFHVNGGELILIHQNPGEFCVLGGGGSGGGGSGGGGSSLGWDVAELQLNHTGPQQDPRLYWQGGPALGRSFLHGPELDKGQLRIHRDGIYMVHIQVTLAICSSTTASRHHPTTLAVGICSPASRSISLLRLSFHQGCTIASQRLTPLARGDTLCTNLTGTLLPSRNTDETFFGVQWVRP"}, "B6": {"name": "CD27L-OX40L (ligand, human)", "chain": "SLGWDVAELQLNHTGPQQDPRLYWQGGPALGRSFLHGPELDKGQLRIHRDGIYMVHIQVTLAICSSTTASRHHPTTLAVGICSPASRSISLLRLSFHQGCTIASQRLTPLARGDTLCTNLTGTLLPSRNTDETFFGVQWVRPGGGGSGGGGSGGGGSQVSHRYPRIQSIKVQFTEYKKEKGFILTSQKEDEIMKVQNNSVIINCDGFYLISLKGYFSQEVNISLHYQKDEEPLFQLKKVRSVNSLMVASLTYKDKVYLNVTTDNTSLDDFHVNGGELILIHQNPGEFCVL"}, "B7": {"name": "CD27L-4-1BBL (ligand, human)", "chain": "SLGWDVAELQLNHTGPQQDPRLYWQGGPALGRSFLHGPELDKGQLRIHRDGIYMVHIQVTLAICSSTTASRHHPTTLAVGICSPASRSISLLRLSFHQGCTIASQRLTPLARGDTLCTNLTGTLLPSRNTDETFFGVQWVRPGGGGSGGGGSGGGGSGGGGSREGPELSPDDPAGLLDLRQGMFAQLVAQNVLLIDGPLSWYSDPGLAGVSLTGGLSYKEDTKELVVAKAGVYYVFFQLELRRVVAGEGSGSVSLALHLQPLRSAAGAAALALTVDLPPASSEARNSAFGFQGRLLHLSAGQRLGVHLHTEARARHAWQLTQGATVLGLFRVTPEIPAGLPSPRSE"}, "B8": {"name": "CD40L-CD27L (ligand, human)", "chain": "GDQNPQIAAHVISEASSKTTSVLQWAEKGYYTMSNNLVTLENGKQLTVKRQGLYYIYAQVTFCSNREASSQAPFIASLCLKSPGRFERILLRAANTHSSAKPCGQQSIHLGGVFELQPGASVFVNVTDPSQVSHGTGFTSFGLLKLGGGGSGGGGSGGGGSSLGWDVAELQLNHTGPQQDPRLYWQGGPALGRSFLHGPELDKGQLRIHRDGIYMVHIQVTLAICSSTTASRHHPTTLAVGICSPASRSISLLRLSFHQGCTIASQRLTPLARGDTLCTNLTGTLLPSRNTDETFFGVQWVRP"}}}
{"target": "the molecule itself", "test": "SEC"}
{"molecule": "B1", "stoichiometry N": 3}
{"molecule": "B2", "stoichiometry N": 3}
{"molecule": "B3", "stoichiometry N": 3}
{"molecule": "B4", "stoichiometry N": 3}
{"molecule": "B5", "stoichiometry N": 3}
{"molecule": "B6", "stoichiometry N": 3}
{"molecule": "B7", "stoichiometry N": 3}
{"target": "Human OX40-Fc (human) (UniProt P43489)", "sequence (P43489 29-214)": "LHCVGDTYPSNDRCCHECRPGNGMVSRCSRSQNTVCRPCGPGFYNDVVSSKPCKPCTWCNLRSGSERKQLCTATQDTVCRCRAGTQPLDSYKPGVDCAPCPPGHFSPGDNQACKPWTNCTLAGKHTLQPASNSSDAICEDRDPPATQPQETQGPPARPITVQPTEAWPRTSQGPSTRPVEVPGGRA", "test": "ELISA", "units": {"EC50": "nM"}}
{"molecule": "scOX40L-scCD27L (from UniProt P23510 51-183; P23510 51-183; P23510 51-183; P32970 52-193; P32970 52-193; P32970 52-193) (ligand)", "EC50": 60.2}
{"molecule": "scCD27L-scOX40L (from UniProt P32970 52-193; P32970 52-193; P32970 52-193; P23510 51-183; P23510 51-183; P23510 51-183) (ligand)", "EC50": 14.3}
{"target": "Human CD40-Fc (human, UniProt P25942 21-193)", "sequence (P25942 21-193)": "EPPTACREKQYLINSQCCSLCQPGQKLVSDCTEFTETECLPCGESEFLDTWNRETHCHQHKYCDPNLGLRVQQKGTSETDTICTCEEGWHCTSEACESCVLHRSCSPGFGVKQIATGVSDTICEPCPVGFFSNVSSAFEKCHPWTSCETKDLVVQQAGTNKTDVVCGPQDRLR", "test": "ELISA", "units": {"EC50": "nM"}}
{"molecule": "B8", "EC50": 12.3}
